# In the nanobody polyreactivity screen of Harvey et al. (2022):
# Test: yeast display, Sf9 membrane polyspecificity reagent, FACS + sequencing; frameworks hold sequencing errors
# Outline: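 Sorting gates, low and high (top ~1%), were placed on anti-HA fluorescence to track expression and on streptavidin fluorescence to track reagent binding. A clone's polyreactivity label is taken from the gate it came out of. The reagent was 10% biotinylated, detergent-solubilized Sf9 membrane, applied for 1 hour at 4 °C to galactose-induced yeast display cells.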
row,Sequence,polyreactivity (PSR sort gate)
1,QVQLVESGGGLVQAGGSLLLSCAASGLTFYPNAMGWYRQAPGKERELVAAISSSGDSTYSADSVKVRFTISRDNAKNTVYLQMNSLKPEDTAVYYCAADLGYYNARWYEYWGQGTQVTVSS,high polyreactivity
2,QVQLVESGGGLVQAGGSLLLSCAASGRTFILNAMGWYRQAPGKERELVAAISWSGGSTYYADSVKGRFTISRDKSKNTVYLQMNSLKPEDPAVYYCAAETYAYLFHTYDYGGQGTQVTVSS,low polyreactivity
3,QVQLVESGGGLVQAGGSLLLSCAASGRTFYYNAMGWYRQAPGKERELVAAISRGGNTNYADSVKGRFTISRDNAKNTVYLQMNSLKPEDTAVYYCSTYHRYKFYYWGQGTQVTVSS,high polyreactivity
4,QVQLVESGGGLVQAGGSLLLSCAASGSIFGWYAMGWYRQAPGKERELVAAISSSGDSTYYADSVKGRFTISRDNAKNTVYLQMNSLKPEDTAVYYCAAEYWPSSPSAPGFDYDHWGQGTQVTVSS,low polyreactivity
5,QVQLVESGGGLVQAGGSLLLSCAASGSIFRVYAMGGYRQAPGKESELVAAISVSGSSTYYADSVKGRFTISRDNAKNTVYFQMNCLKREDTAVYYCATKQRRGYWGYITAYARYYWGQGTQVSVSS,high polyreactivity
6,QVQLVESGGGLVQAGGSLLLSCAASGSTFIPYAMGWYRQAPWKERELVAAITWSSGSTYYADSVKVRFTISRDNAKNTVFLQMNSLKTEDTAVYYCARDRYSVFDYDYWGQGTQVTVSS,low polyreactivity
7,QVQLVESGGGLVQAGGSLLLSCAASVFIYRWYAMGWYRPAPGKERELVAGISASGGSTYYADSVKGRFTISRDNAKNTVYLQMNSLKPEDTAVYYCAAYRRNSRWELDYWGQGTQVTVSS,high polyreactivity
8,QVQLVESGGGLVQAGGSLLLSCAASVRIFQGYAMGWYRQEPGKERELVAAISSGGRTYYADSVKGRFTISRDNAKNTVYLQMNSLKPEDTAVYYCAARSPKAHGLQRFDYWGQGTQVTVSS,high polyreactivity
9,QVQLVESGGGLVQAGGSLLLSCPASGRIFTWYAMGWYRQAPGKERELVAAINYNGDDTYYADSVKGRFTISRDNAKNTVYLQMNSLKPEDTAVYYCAAEGSRPPYDYWGQGTQVTVSS,high polyreactivity
10,QVQLVESGGGLVQAGGSLLLSGAPSGRTFPYYAMGWYRQAPGKERELVARISSDGSTTYADSVKGRITISRDHAKNTVYLQMNSLKPEDTAVYYSAADVTFAGLKYIFDYWGPGTQVTVSS,low polyreactivity
11,QVQLVESGGGLVQAGGSLLVSCAASGRIFSYNAMGWYRQAPGKERELVAAITRSGSTNYADSVKGRFTISRDNANNTVYLQMNSLKPEDTAVYYCAAVVYRPYRWQYDYWGQGTQVTVSS,high polyreactivity
12,QVQLVESGGGLVQAGGSLPLICADSGFISAYYAMGWYRQAPGKEREFVAGISKSGSSTSYADSVKGRFTISRDNAKKTVYLQMNSLKPEDTAVYYCAKYTPYYSELGYWGQGTQVTVSS,high polyreactivity
13,QVQLVESGGGLVQAGGSLPLRCAASGLILEYYAMGWYRQAPGKERELVAAITRGGSTYYADSVKWRFTISRDNAKNTVYLQMNSLKPEDTAVYYCAADRYYYEYDYWGQGTQVNVSS,low polyreactivity
14,QVQLVESGGGLVQAGGSLPLSCAASGLTIFVNAMGWYRQAPGKERELVATISGGGSTYYADSVKGRFTISRDNAKNTVYLQMNSLKREDTAVYYCNAADVGGPWWYPYTYNYWGQGTQVTVSS,low polyreactivity
15,QVQLVESGGGLVQAGGSLPLSCAASGRTFHYNAMGWYRQAPGKERDLFAAISRDGGSTDYADSVKGRFTISSDNAKNTVYLQMNSLKPEDTAVYYCAAPIGKQEFSRDYDYWGQGTQVTVSS,low polyreactivity
16,QVQLVESGGGLVQAGGSLPLSCAASGRTFYYYAMGWYRQAPGKERELVAAISWSGGRTYYADSVKGSFTISRDNAKNTVYLQMNSLKPADTAVYYCNAEPPRGYTVSSGGEMDYWGQCTQVTVSS,low polyreactivity
17,QVQLVESGGGLVQAGGSLPLSCAASGSIFDDYAMGWYRQAPGKEWELVAAITSGGSTYYADSVKGRFTISRDNAKYTVYLQMNSLKPEDTAVYYCAAPENKYDEYDYWGQGTQVTVSS,low polyreactivity
18,QVQLVESGGGLVQAGGSLPLSCAASGSIFLYNAMGWYRQAPGKERELVAGITFIGGSTYYADSVKGRFTISRDNAKNSVYLQMNSLKPEDTAVYYCNRLGVYWVGTEFDYWGQGTQVTLSS,low polyreactivity
19,QVQLVESGGGLVQAGGSLPLSCAASGSISGLNARGWSRQAPGTEREMVAAISRSGTRRYYADSVKGRFTISRDNEKNTVYLQMNSLKPEDSAVYYCAVQYAVAVGRYNYWGQGTQVTVSS,high polyreactivity
20,QVQLVESGGGLVQAGGSLPLSCAASGSTFNGYAMGWYIQAPGKEWELVAVISSGGTTNYADSVKGRFTISRDNAKNTVYLQMNSLKPEDTAVYYCAADIGHRYHYRFDYWGQGTQVTVSS,low polyreactivity
21,QVQLVESGGGLVQAGGSLPLSCAASGYTFDANAMGWYRQAPGKERELVASISSISDSTDYADSVKGRFTISRDNAKNTVYLQMNSLKPEDTAVYYCARSDVKPGRQERDYWGQGTQVTVSS,low polyreactivity
22,QVQLVESGGGLVQAGGSLPLSCYDSGITIPDYYMGCFRQSPGKERELVAAITYRSGSTYNADSVKGRFTISRDNAKNTVYLQMNSLKQEDTAVFYCAAKRFLLRYYTKQYNYWGLGTQVTVSS,high polyreactivity

row,Sequence,polyreactivity (PSR sort gate)
1,QVQLVESGGGLVQAGGSLRCSCAASGRTFGTYAMGWYRQAPGKERELVAAISTRDGSTYYADSVKGRYTISRDTAKNTVYLQMNSLKPEDTAVYYCNAVVRYYDWGYWDYDYWGQGTQVTVSS,low polyreactivity
2,QVQLVESGGGLVQAGGSLRESCAASGSISAEYVMGWYRKAPGKERELVAAISVSAGTTYYADSVKGRFTISRDNAKTTVYLHMNSLKPEDTAVYYCAATDSYYWLYYYGYSPCNDYWGQGTQVTVSS,low polyreactivity
3,QVQLVESGGGLVQAGGSLRFSCAASGFIFSNYAMGWYRQAPGKERELVAAITSGGSTNYADSVKGRFTISRDNAKNTVYLQMNSLKPEDTAVYYCAAERGDTAYRKYDYWGQGTQVTVSS,low polyreactivity
4,QVQLVESGGGLVQAGGSLRFSCAASGFTFPYYAMGWYRQAPGKERELVAAITGRGGSSYYADSVKGRFTISRDNAKNTVYLQMNSLKPEDTAVYYCAARRSSRSKRLNYWGQGTQVTVSS,high polyreactivity
5,QVQLVESGGGLVQAGGSLRFSCAASGFTFSDYAMGWYRQAPGKEREFVAAITRRGGSTYYADSVKGRFTISRDNAKNTVYLQMNSLKPEDTAVYYCAKRGLRSYSFPLWQGYDYWGQGTQVTVSS,high polyreactivity
6,QVQLVESGGGLVQAGGSLRFSCAASGFTFVINDMGWYRQAPGKERELVADITSGGDTYYADSVKGRFTISRDNAKNTVYLQMNSLKPEDTAVYYCAADIYPDWIYLLYGYWGQGTQVTVSS,low polyreactivity
7,QVQLVESGGGLVQAGGSLRFSCAASGGIYYLYAMGWYRQAPGKEREFVAAISSSGGSTNYADSVMGRFTISRDNAKNTVYLQMNSLKRDDSAVYYCNAVDWKQEVGGWVEYDYWGQGTQVNVSS,high polyreactivity
8,QVQLVESGGGLVQAGGSLRFSCAASGHIFFYYTMGWYRQAPGKERELVAGITQSGGNTYYADSVKGRFTISRDNAKNTVYLQMNSLKPEDTAVYYCAARIRGTWKYGYWGQGTQVTVSS,low polyreactivity
9,QVQLVESGGGLVQAGGSLRFSCAASGITFSSYGMGWYRQAPGKERELVAAISWDSGSTYYADSVKGRFTISRDNAKNTVYLQMNSLKPEQTAVYYCNAVYYSVYRFDYWGQGTQVTVSS,high polyreactivity
10,QVQLVESGGGLVQAGGSLRFSCAASGRIFRFYAMGWYRQAPGKERELVAAISSRGGSTYYADSVKGRFTISRDNAKNTVYLQMNSLKPEDTAVYYCNAYGSTSQLDYWGQGTQVTVSS,high polyreactivity
11,QVQLVESGGGLVQAGGSLRFSCAASGRIFRYNAMGWYRQAPGKARELVAAISRSGGSTYYADSVKGRFTISRDNAKNTVYLQMISLKPEDTAVYYCAVGSPYGGRAPCVRGGDYWGQGTQVTVSS,high polyreactivity
12,QVQLVESGGGLVQAGGSLRFSCAASGRTFNQNAMGWYRQAPGKERELVAAITSRGGSTFYADSVKGRFTISRDNAKNTVYLQMNSLKPEDTAVYYCNAKSWRYYTMGYWGQGTQVTVSS,high polyreactivity
13,QVQLVESGGGLVQAGGSLRFSCAASGRTFNWYAMGWYRQAPGKERELVAAISSRGGSTYADSVKGRFTISRDNAKNTVYLQMNSLKPEDTAVYYCAARHHGTKYDYWGQGTQVTVSS,low polyreactivity
14,QVQLVESGGGLVQAGGSLRFSCAASGRTIYYNTMGWYRQAPGKERELVAAINYGGSTYYADSVKGRFTISRDNAKNTVYLQMHSLKPEDTAVYYCNAVTRPKTWRYDYWGQGPQVTVSS,high polyreactivity
15,QVQLVESGGGLVQAGGSLRFSCAASGSIFDYNAMGWYRQAPGKERELVAAIDWSGSSTYYADSVKGRFTISRDNAKNTVYLQMNSLKPEDTAVYYCNALAYYGMDYWGQGTQVTVSS,low polyreactivity
16,QVQLVESGGGLVQAGGSLRFSCAASGSIFWYNAMGWYRQAPGKERELVARISSSGDSTYYADSVKGRFTISRDNAKNTVYLQMNSLKPEDTAVYYCNVDYWSISESSWGYYTSYDYWGQGTQVTVSS,high polyreactivity
17,QVQLVESGGGLVQAGGSLRFSCAASGSTFHRYVMGWYRQAPGKERELVADINSTGGSTYYADSVKGRFTISRDNAKNTVYLQMNSLKPEDTAVYYCARVTRRGPGFSTLYSRYDYWGQGTQVNVSS,low polyreactivity
18,QVQLVESGGGLVQAGGSLRFSCAASGSTFRAYAMGWYRQAPGKEREFVASISWSGGRTYYADSVKGRFTISRDNAKNTVYLQMNSLIPEDTAVYYCAADYDVLDYGNLRYGFDYWGQGTKVTVSS,low polyreactivity
19,QVQLVESGGGLVQAGGSLRFSCAASGSTFVYYAMGWYRQAPGKERELVAAITFGGGSTYYADSVKGRFTISRDNAKNTVYLQMNSLKPEDTAVYYCAVYWDDGSAYPPLIVGYDYWGQGTQVTVSS,low polyreactivity
20,QVQLVESGGGLVQAGGSLRFSCAASRLTFYWYAMGWYRQPPGKERELVAGISWSGGSTYADSVKGRFTITRDNAKNTVYLQLNSLKPEDTAVYYCAADTYYYRGQSYYYWGQGTEVTVSS,high polyreactivity
21,QVQLVESGGGLVQAGGSLRFSCAPSGRILYKYAMGCYRQAPGKERELVAAISWRGTTTYYADSVKGRFTISRDNAKNTVYLQMNSLKPEDTAVYYCNARVRVRLGRNWSSYYYWGQGTQVTVSS,high polyreactivity
